Patent CN115819596A (YOUMAI BIOTECHNOLOGY LIANYUNGANG CO LTD, dated 2023)

What was measured:
[1] = biological target: T1, 人CEACAM5蛋白 (human CEACAM5 protein) (human, UniProt P06731 35-685, limits assumed); assay: ELISA, plate-coated human CEACAM5 protein, goat anti-human IgG HRP
T1 construct: Soluble protein used for ELISA coating and as SPR analyte; The construct is not described
T1 sequence (looked up): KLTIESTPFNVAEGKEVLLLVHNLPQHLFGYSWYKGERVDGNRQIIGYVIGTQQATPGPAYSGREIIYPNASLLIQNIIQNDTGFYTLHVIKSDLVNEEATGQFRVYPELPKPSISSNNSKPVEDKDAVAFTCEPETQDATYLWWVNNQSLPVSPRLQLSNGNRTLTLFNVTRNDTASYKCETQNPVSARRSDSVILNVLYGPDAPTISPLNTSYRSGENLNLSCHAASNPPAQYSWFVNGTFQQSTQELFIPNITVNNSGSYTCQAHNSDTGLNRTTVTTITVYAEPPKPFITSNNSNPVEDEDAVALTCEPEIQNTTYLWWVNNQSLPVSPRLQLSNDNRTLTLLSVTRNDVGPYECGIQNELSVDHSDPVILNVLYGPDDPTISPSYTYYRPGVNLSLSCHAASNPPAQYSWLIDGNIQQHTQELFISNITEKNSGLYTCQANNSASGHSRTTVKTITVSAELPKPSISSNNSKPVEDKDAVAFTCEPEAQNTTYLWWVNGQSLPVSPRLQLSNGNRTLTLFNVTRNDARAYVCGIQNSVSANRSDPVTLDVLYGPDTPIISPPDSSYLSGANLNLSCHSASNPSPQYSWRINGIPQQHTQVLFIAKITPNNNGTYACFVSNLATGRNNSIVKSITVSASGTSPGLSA

[2] = biological target: T2, 人CEACAM5 on CHO cells (CHO-CEACAM5) (human, UniProt P06731 35-685); assay: flow cytometry on CHO cells overexpressing human CEACAM5
T2 construct: whole, on cells; also called 过表达人CEACAM5的CHO细胞
T2 sequence (looked up): T1 sequence (looked up)

[3] = biological target: T1, 人CEACAM5蛋白 (human CEACAM5 protein); assay: SPR (Biacore 8K), antibody captured on protein A chip, human CEACAM5 protein as analyte
[4] = biological target: 人CD47蛋白 (human CD47 protein) (human, UniProt Q08722 19-139, limits assumed); assay: SPR (Biacore 8K), antibody captured on protein A chip, human CD47 protein as analyte
CD47 on A549 cells = biological target: T3, CD47 on A549 cells (human, UniProt Q08722 19-323); assay: grade of blocking of SIRPα-mouse Fc binding to CD47 on A549 cells, flow cytometry (reference antibody)
T3 construct: whole, on cells; A549 cells also express CEACAM5; also called A549细胞上CD47

[5] = biological target: 食蟹猴CEACAM5蛋白 (cynomolgus CEACAM5 protein) (cynomolgus monkey); assay: ELISA, plate-coated cynomolgus CEACAM5 protein
[6] = biological target: T1, 人CEACAM5蛋白 (human CEACAM5 protein); assay: SPR (Biacore), antibody captured on protein A chip; the text value differs tenfold from Table 8
[7] = biological target: T1, 人CEACAM5蛋白 (human CEACAM5 protein); assay: SPR (Biacore), antibody captured on protein A chip, CEACAM5 protein as analyte
[8] = biological target: T4, 人CEACAM6 on CHO cells (CHO-CEACAM6) (human, UniProt P40199 35-320); assay: flow cytometry on CHO-CEACAM6 stable cells
T4 construct: whole, on cells
T4 sequence (looked up): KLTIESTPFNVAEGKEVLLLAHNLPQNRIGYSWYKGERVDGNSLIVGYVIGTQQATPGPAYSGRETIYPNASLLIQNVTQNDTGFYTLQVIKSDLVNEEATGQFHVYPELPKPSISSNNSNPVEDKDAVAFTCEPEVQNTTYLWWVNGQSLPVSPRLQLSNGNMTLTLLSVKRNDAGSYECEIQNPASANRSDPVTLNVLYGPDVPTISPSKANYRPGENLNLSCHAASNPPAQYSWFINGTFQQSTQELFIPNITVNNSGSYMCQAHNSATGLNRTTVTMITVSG

B1: UM05-C9 (antibody, V domains shown)
VH: QVQLVQSGAEVKKPGASVKVSCKASGYTFTDYAMHWVRQAPGQGLEWIGVISTYSGHTNYNQKFKGRAIMTRDKSISTAYMELSRLRSDDTAVYYCVRGSTTAHYYTMDFWGQGTTVTVSS
VL: DIQMTQSPSSLSASVGDRVTITCGASENIYGTLNWYQQKPGKSPKLLIYGATNLADAVPSRFSGSGSGTDYTLTISSLQPEDVATYYCQNVLSIPYTFGGGTKVEIK
notes: Humanized anti-human CEACAM5/6 antibody; Only the variable domains are tied to it by name; Detected with goat anti-human IgG; also called 人源化抗体UM05-C9; CEACAM5/6抗体UM05-C9
For B1, the EC50 [1] was 0.399 nM and the EC50 [2] was 0.637 µg/mL.

B2: UM11-L34 (bispecific antibody)
chain 1: not shown
chain 2: DIQMTQSPSSLSASVGDRVTITCGASENIYGTLNWYQQKPGKSPKLLIYGATNLADAVPSRFSGSGSGTDYTLTISSLQPEDVATYYCQNVLSIPYTFGGGTKVEIKRTVAAPSVFIFPPSDEQLKSGTASVVCLLNNFYPREAKVQWKVDNALQSGNSQESVTEQDSKDSTYSLSSTLTLSKADYEKHKVYACEVTHQGLSSPVTKSFNRGEC
B2 gave a Kd [3] of 7.43 nM, a koff [3] of 0.000173 s⁻¹ and a kon [3] of 23300 M⁻¹ s⁻¹. The Kd [4] was 65.7 nM, the koff [4] was 0.0451 s⁻¹ and the kon [4] was 686000 M⁻¹ s⁻¹.

B3: UM03-C4 (antibody, V domains shown)
VH: QVQLVESGGGVVQPGGSLRLSCAASGFTFSDYGMAWIRQAPGKGPEWIAFITNLASSIYYADTVTGRFTISRDNSKNTLYLQMNSLRAEDTAVYYCARAGDYRSFPYWGQGTLVTVSA
VL: EIVLTQSPATLSLSPGERATLSCSASSSVNYVNWYQQKPGQAPRILIYGISNLASGVPARFSGSGSGTDFTLTISSLEPEDFAVYYCQQRSTFPPYTFGQGTKLEIK
notes: IgG4 subtype of the humanized anti-human CD47 antibody; also called 人源化CD47单克隆抗体; CD47抗体的IgG4亚型
B3: binds (CD47 on A549 cells).

B4: UM05-L9 (antibody, human IgG1, kappa, V domains shown)
VH: QVQLQQSGPELVRPGVSVKISCKGSGYTFTDYAMHWVKQSHAKSLEWIGVISTYSGHTNYNQKFKGKAIMTVDKSSSTAYMDLARLTSEDSAIYYCVRGSTTAHYYTMDFWGQGTSVTVSS
VL: DIQMTQSPVSLSASVGETVTITCGASENIYGTLNWYQRKQGKSPQLLIYGATNLADGVSSRFSGSGSGRQYSLKISSLHPDDVATYYCQNVLSIPYTFGGGTKLEIKR
notes: also called 人-鼠嵌合抗体UM05-L9; 嵌合抗体UM05-L9
For B4, the EC50 [5] was 0.678 nM, the Kd [6] was 0.68 nM and the Kd [7] was 6.8 nM. For the same binder, the koff [7] was 0.000445 s⁻¹, the kon [7] was 65400 M⁻¹ s⁻¹ and the binding result [8] was “binds”.
